B1: library; numbered along this chain (parent)
chain: MRKPRAAVGSGHRKQAASQEGRQKHAKNNSQAKPSACDGLARQPEEVVLQASVSSYHLFRDVAEVTAFRGSLLSWYDQEKRDLPWRRRAEDEMDLDRRAYAVWVSEVMLQQTQVATVINYYTGWMQKWPTLQDLASASLEEVNQLWAGLGYYSRGRRLQEGARKVVEELGGHMPRTAETLQQLLPGVGRYTAGAIASIAFGQATGVVDGNVARVLCRVRAIGADPSSTLVSQQLWGLAQQLVDPARPGDFNQAAMELGATVCTPQRPLCSQCPVESLCRARQRVEQEQLLASGSLSGSPDVEECAPNTGQCHLCLPPSEPWDQTLGVVNFPRKASRKPPREESSATCVLEQPGALGAQILLVQRPNSGLLAGLWEFPSVTWEPSEQLQRKALLQELQRWAGPLPATHLRHLGEVVHTFSHIKLTYQVYGLALEGQTPVTTVPPGARWLTQEEFHTAAVSTAMKKVFRVYQGQQPGTCMGSKRSQVSSPCSRKKPRMGQQVLDNFFRSHISTDAHSLNSAAQ
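Also: cells sorted at 72 h after reporter transfection.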

In this data set the parent is B1. Put plainly: 8OG:A repair function score (normalized; synonymous = 0, nonsense = -1) (normalized log-likelihood score); higher = more repair activity (WT-like). The settings on record: with 8OG:A DNA repair reporter (GFP) in HEK-293 MUTYH KO cells. Put shortly: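 After 72 h, viable mCherry+ cells were split into GFP+ (repair) and GFP− bins in three replicates per tile. These cells were MUTYH knockout HEK-293 cells holding lentiviral MUTYH cDNA NNN codon-scan libraries, kept in 10 pg/ml doxycycline and co-transfected with mCherry plus an 8OG:A GFP repair reporter. Sequencing of tile amplicons gave per-tile Rosace fitness scores, normalized into a repair function score anchored on synonymous and nonsense distributions. Synonymous medians were fixed at 0, nonsense at -1, and variants under 300 counts per million at the start were removed.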
Take MRKPRAAVGSGHRKQAASQEGRQKHAKNNSQAKPSACDGLARQPEEVVLQASVSSYHLFRDVAEVTAFRGSWLSWYDQEKRDLPWRRRAEDEMDLDRRAYAVWVSEVMLQQTQVATVINYYTGWMQKWPTLQDLASASLEEVNQLWAGLGYYSRGRRLQEGARKVVEELGGHMPRTAETLQQLLPGVGRYTAGAIASIAFGQATGVVDGNVARVLCRVRAIGADPSSTLVSQQLWGLAQQLVDPARPGDFNQAAMELGATVCTPQRPLCSQCPVESLCRARQRVEQEQLLASGSLSGSPDVEECAPNTGQCHLCLPPSEPWDQTLGVVNFPRKASRKPPREESSATCVLEQPGALGAQILLVQRPNSGLLAGLWEFPSVTWEPSEQLQRKALLQELQRWAGPLPATHLRHLGEVVHTFSHIKLTYQVYGLALEGQTPVTTVPPGARWLTQEEFHTAAVSTAMKKVFRVYQGQQPGTCMGSKRSQVSSPCSRKKPRMGQQVLDNFFRSHISTDAHSLNSAAQ [L72W]: the “8OG:A repair function score” value was -0.994. Consider MRKPRAAVGSGHRKQAASQEGRQKHAKNNSQAKPSACDGLARQPEEVVLQNSVSSYHLFRDVAEVTAFRGSLLSWYDQEKRDLPWRRRAEDEMDLDRRAYAVWVSEVMLQQTQVATVINYYTGWMQKWPTLQDLASASLEEVNQLWAGLGYYSRGRRLQEGARKVVEELGGHMPRTAETLQQLLPGVGRYTAGAIASIAFGQATGVVDGNVARVLCRVRAIGADPSSTLVSQQLWGLAQQLVDPARPGDFNQAAMELGATVCTPQRPLCSQCPVESLCRARQRVEQEQLLASGSLSGSPDVEECAPNTGQCHLCLPPSEPWDQTLGVVNFPRKASRKPPREESSATCVLEQPGALGAQILLVQRPNSGLLAGLWEFPSVTWEPSEQLQRKALLQELQRWAGPLPATHLRHLGEVVHTFSHIKLTYQVYGLALEGQTPVTTVPPGARWLTQEEFHTAAVSTAMKKVFRVYQGQQPGTCMGSKRSQVSSPCSRKKPRMGQQVLDNFFRSHISTDAHSLNSAAQ [A51N], for which the “8OG:A repair function score” value was -0.00641. MRKPRAAVGSGHRKQAASQEGRQKHAKNNSQAKPSACDGLARQPEEVVLQASVSSYHLFRDVAEVTAFRGSLLSWYDQEKRDLPWRRRAEDEMDLDRRAYAVWVSEVMLQQTQVATVINYYTGWMQKWPTLQDLASASLEEVNQLWAGLGYYSRGRRLQEGARKVVEELGGHMPRTAETLQQLLPGVGRYTAGAIASIAFGQATGVVDGNVARVLCRVRAIGADPSSTLVSQQLWGLAQQLVDPARPGDFNQAAMELGATVCTPQRPLCSQCPVEYLCRARQRVEQEQLLASGSLSGSPDVEECAPNTGQCHLCLPPSEPWDQTLGVVNFPRKASRKPPREESSATCVLEQPGALGAQILLVQRPNSGLLAGLWEFPSVTWEPSEQLQRKALLQELQRWAGPLPATHLRHLGEVVHTFSHIKLTYQVYGLALEGQTPVTTVPPGARWLTQEEFHTAAVSTAMKKVFRVYQGQQPGTCMGSKRSQVSSPCSRKKPRMGQQVLDNFFRSHISTDAHSLNSAAQ [S276Y]: the “8OG:A repair function score” value was found to be 0.0309. Then MRKPRAAVGSGHRKQAASQEGRQKHAKNNSQAKPSACDGLARQPEEVVLQASVSSYHLFRDVAEVTAFRGSLLSWYDQEKRDLPWRRRAEDEMDLDRRAYAVWVSEVMLQQTQVATVINYYTGWMQKWPTLQDLASASLEEVNQLWAGLGYYSRGRRLQEGARKVVEELGGHMPRTAETLQQLLPGVGRYTAGAIASIAFGQATGVVDGNVARVLCRVRAIGADPSSTLVSQQLWGLAQQLVDPARPGDFNQAAMELGATVCTPQRPLCSQCPVESLCRARQRVEQEQLLASGSLSGSPDVEECAPNTGQCHLCLPPSEPWDQTLGVVNGPRKASRKPPREESSATCVLEQPGALGAQILLVQRPNSGLLAGLWEFPSVTWEPSEQLQRKALLQELQRWAGPLPATHLRHLGEVVHTFSHIKLTYQVYGLALEGQTPVTTVPPGARWLTQEEFHTAAVSTAMKKVFRVYQGQQPGTCMGSKRSQVSSPCSRKKPRMGQQVLDNFFRSHISTDAHSLNSAAQ [F330G], with -0.999; and MRKPRAAVGSGHRKQAASQEGRQKHAKNNSQAKPSACDGLARQPEEVVLQASVSSYHLFRDVAEVTAFRGSLLSWYDQEKRDLPWRRRAEDEMDLDRRAYAVWVSEVMLQQTQVATVINYYTGWMQKWPTLQDLASASLEEVNQLWAGLGYYSRGRRLQEGARKVVEELGGHMPRTAETLQQLLPGVGRYTAGAIASIAFGQATGVVDGNVARVLCRVRAIGADPSSTLVSQQLWGLAQQLVDPARPGDFNQAAMELGATVCTPQRPLCSQCPVESLCRARQRVEQEQLLASGSLSGSPDVEECAPNTGQCHLCLPPSEPWDQTLGVVNFPRKASRKPPREESSATCVLEQPGALGAQILLVQRPNSGLLAGLWEFPSVTWEPSEQLQRKALLQELQRWAGPLPATHLRHLGEVVHTFSHIKLTYQVYGLALEGQTPVTTVPPGARWLTQEEFHTAAVSTAMKKVFRVYQGQQPGTCMGSKRSQVSSPCSRKKPRMGQQVLDNFFRSHISTDAHSLNSKAQ [A519K], with 0.0032; and MRKPRAAVGSGHRKQAASQEGRQKHAKNNSQAKPSACDGLARQPEEVVLQASVSSYHLFRDVAEVTAFRGSLLSWYDQEKRDLPWRRRAEDEMDLDRRAYAVWVSEVMLQQTQVATVINYYTGWMQKWPTLQDLASASLEEVNQLWAGLGYYSRGRRLQEGARKVVEELGGHMPRTAETLQQLLPGVGRYTAGAIASIAFGQATGVVDGNVARVLCRVRAIGADPSSTLVSQQLWGLAQQLVDPARPGDFNQAAMELGATVCTPQRPLCSQCPVESLCRARQRVEQEQLLASGSLSGSPDVEECAPNTGQCHLCLPPSEPWDQTLGVVNFPRKASRKPPREESSATCVLEQPGALGAQILLVQRPNSGLLAGLWEFPSVTWEPSEQLQRKALLQELQRWAGPLPATHLRHLGEVVHTFSHIKLTYQVYGLALEGQTPVTTVPPGARWLTQEEFHTAAVSTAMKKVFRVYQGQQPGTCMGSKRSQVSSPCYRKKPRMGQQVLDNFFRSHISTDAHSLNSAAQ [S490Y], with -0.00381. For MRKPRAAVGSGHRKQAASQEGRQKHAKNNSQAKPSACDGLARQPEEVVLQASVSSYHLFRDVAEVTAFRGSLLSWYDQEKRDLPWRRRAEDEMDLDRRAYAVWVSEVMLQQTQVATVINYYTGWMQKWPTLQDLASASLEEVNQLWAGLGYYSRGRRLQEGARKVVEELGGHMPRTAETLQQLLPGVGRYTAGAIASIAFGQATGVVDGNVARVLCRVRAIGADPSSTLVSQQLWGLAQQLVDPARPGDFNQAAMELGATVCTPQRPLCSQCPVESLCRARQRVEQEQLLASGSLSGSPDVEECAPNTGQCHLCLPPSPPWDQTLGVVNFPRKASRKPPREESSATCVLEQPGALGAQILLVQRPNSGLLAGLWEFPSVTWEPSEQLQRKALLQELQRWAGPLPATHLRHLGEVVHTFSHIKLTYQVYGLALEGQTPVTTVPPGARWLTQEEFHTAAVSTAMKKVFRVYQGQQPGTCMGSKRSQVSSPCSRKKPRMGQQVLDNFFRSHISTDAHSLNSAAQ [E319P], the “8OG:A repair function score” value is -0.228. With MRKPRAAVGSGHRKQAASQEGRQKHAKNNSQAKPSACDGLARQPEEVVLQASVSSYHLFRDVAEVTAFRGSLLSWYDQEKRDLPWRRRAEVEMDLDRRAYAVWVSEVMLQQTQVATVINYYTGWMQKWPTLQDLASASLEEVNQLWAGLGYYSRGRRLQEGARKVVEELGGHMPRTAETLQQLLPGVGRYTAGAIASIAFGQATGVVDGNVARVLCRVRAIGADPSSTLVSQQLWGLAQQLVDPARPGDFNQAAMELGATVCTPQRPLCSQCPVESLCRARQRVEQEQLLASGSLSGSPDVEECAPNTGQCHLCLPPSEPWDQTLGVVNFPRKASRKPPREESSATCVLEQPGALGAQILLVQRPNSGLLAGLWEFPSVTWEPSEQLQRKALLQELQRWAGPLPATHLRHLGEVVHTFSHIKLTYQVYGLALEGQTPVTTVPPGARWLTQEEFHTAAVSTAMKKVFRVYQGQQPGTCMGSKRSQVSSPCSRKKPRMGQQVLDNFFRSHISTDAHSLNSAAQ [D91V], the “8OG:A repair function score” value was found to be 0.0064. For the variant MRKPRAAVGSGHRKQAASQEGRQKHAKNNSQAKPSACDGLARQPEEVVLQASVSSYHLFRDVAEHTAFRGSLLSWYDQEKRDLPWRRRAEDEMDLDRRAYAVWVSEVMLQQTQVATVINYYTGWMQKWPTLQDLASASLEEVNQLWAGLGYYSRGRRLQEGARKVVEELGGHMPRTAETLQQLLPGVGRYTAGAIASIAFGQATGVVDGNVARVLCRVRAIGADPSSTLVSQQLWGLAQQLVDPARPGDFNQAAMELGATVCTPQRPLCSQCPVESLCRARQRVEQEQLLASGSLSGSPDVEECAPNTGQCHLCLPPSEPWDQTLGVVNFPRKASRKPPREESSATCVLEQPGALGAQILLVQRPNSGLLAGLWEFPSVTWEPSEQLQRKALLQELQRWAGPLPATHLRHLGEVVHTFSHIKLTYQVYGLALEGQTPVTTVPPGARWLTQEEFHTAAVSTAMKKVFRVYQGQQPGTCMGSKRSQVSSPCSRKKPRMGQQVLDNFFRSHISTDAHSLNSAAQ [V65H], the “8OG:A repair function score” value was -0.0853. Then MRKPRAAVGSGHRKQAASQEGRQKHAKNNSQAKPSACDGLARQPEEVVLQASVSSYHLFRDVAEVTAFRGSLLSWYDQEKRDLPWRRRAEDEMDLDRRAYAVWVSEVMLQQTQVATVINYYTGWMQKWPTLQDLASASLEEVNQLWAGLGYYSRGRRLQEGARKVVEELGGHMPRTAETLQQLLPGVGRYTAGAIASIAFGQATGVVDGNVARVLCRVRAIGADPSSTLVSQQLWGLAQQLVDPARPGDFNQAAMELGATVCTPQRPLCSQCPVESLCRARQRVEQEQLLASGSLSGSPDVEECAPNTGQCHLCLPPSEPWDQTLGVVNFPRKASRKPPREESSATCVLEQPGALGAQILLVQRPNSGLLAGLWEFPSVTWEPSEQLQRKALLQELQRWAGPLPATHLRHLGEVVHTFSHIKLTYQVYGLALEGQTPVTTVPPGARWLTQEEFHTAAVSTAMKKVFRVAQGQQPGTCMGSKRSQVSSPCSRKKPRMGQQVLDNFFRSHISTDAHSLNSAAQ [Y469A], with -0.0759; and MRKPRAAVGSGHRKQAASQEGRQKHAKNNSQAKPSACDGLARQPEEVVLQASVSSYHLFRDVAEVTAFRGSLLSWYDQEKRDLPWRRRAEDEMDLDRRAYAVWVSEVMLQQTQVATVINYYMGWMQKWPTLQDLASASLEEVNQLWAGLGYYSRGRRLQEGARKVVEELGGHMPRTAETLQQLLPGVGRYTAGAIASIAFGQATGVVDGNVARVLCRVRAIGADPSSTLVSQQLWGLAQQLVDPARPGDFNQAAMELGATVCTPQRPLCSQCPVESLCRARQRVEQEQLLASGSLSGSPDVEECAPNTGQCHLCLPPSEPWDQTLGVVNFPRKASRKPPREESSATCVLEQPGALGAQILLVQRPNSGLLAGLWEFPSVTWEPSEQLQRKALLQELQRWAGPLPATHLRHLGEVVHTFSHIKLTYQVYGLALEGQTPVTTVPPGARWLTQEEFHTAAVSTAMKKVFRVYQGQQPGTCMGSKRSQVSSPCSRKKPRMGQQVLDNFFRSHISTDAHSLNSAAQ [T122M], with -0.388; and MRKPRAAVGSGHRKQAASQEGRQKHAKNNSQAKPSACDGLARQPEEVVLQASVSSYHLFRDVAEVTAFRGSLLSWYDQEKRDLPWRRRAEDEMDLDRRAYAVWVSEVMLQQTQVATVINYYTGWMQKWPTLQDLASATLEEVNQLWAGLGYYSRGRRLQEGARKVVEELGGHMPRTAETLQQLLPGVGRYTAGAIASIAFGQATGVVDGNVARVLCRVRAIGADPSSTLVSQQLWGLAQQLVDPARPGDFNQAAMELGATVCTPQRPLCSQCPVESLCRARQRVEQEQLLASGSLSGSPDVEECAPNTGQCHLCLPPSEPWDQTLGVVNFPRKASRKPPREESSATCVLEQPGALGAQILLVQRPNSGLLAGLWEFPSVTWEPSEQLQRKALLQELQRWAGPLPATHLRHLGEVVHTFSHIKLTYQVYGLALEGQTPVTTVPPGARWLTQEEFHTAAVSTAMKKVFRVYQGQQPGTCMGSKRSQVSSPCSRKKPRMGQQVLDNFFRSHISTDAHSLNSAAQ [S138T], with 0.0193.
